In article PMC3006384, “Phosphorylation of Mouse Immunity-Related GTPase (IRG) Resistance Proteins Is an Evasion Strategy for Virulent Toxoplasma gondii” (PLoS Biology, 2010):

Target: the molecule itself
Experiment: light scattering; GTP-dependent oligomerisation of recombinant Irga6 monitored by conventional light scattering, as described earlier (ref. 16)

B1: recombinant wt Irga6 (bacterially expressed, from pGEX-4T-2-Irga6) (natural protein)
chain: MGQLFSSPKSDENNDLPSSFTGYFKKFNTGRKIISQEILNLIELRMRKGNIQLTNSAISDALKEIDSSVLNVAVTGETGSGKSSFINTLRGIGNEEEGAAKTGVVEVTMERHPYKHPNIPNVVFWDLPGIGSTNFPPNTYLEKMKFYEYDFFIIISATRFKKNDIDIAKAISMMKKEFYFVRTKVDSDITNEADGKPQTFDKEKVLQDIRLNCVNTFRENGIAEPPIFLLSNKNVCHYDFPVLMDKLISDLPIYKRHNFMVSLPNITDSVIEKKRQFLKQRIWLEGFAADLVNIIPSLTFLLDSDLETLKKSMKFYRTVFGVDETSLQRLARDWEIEVDQVEAMIKSPAVFKPTDEETIQERLSRYIQEFCLANGYLLPKNSFLKEIFYLKYYFLDMVTEDAKTLLKEICLRN
notes: Irga6, mouse immunity-related GTPase (IRG) protein; Expressed as N-terminal GST fusion; also called recombinant Irga6
B1: binds.
